In patent US8252740B2, “Thermally-targeted delivery of medicaments including doxorubicin” (The University of Mississippi Medical Center, priority 2006, dated 2012):
Like-named read-outs stand apart in the source and are kept apart here.

Columns and labels:
[1] = Turbidity assay of the transition temperature (Tt); format: physicochemical
Description: In order to apply ELP-based polypeptides for drug delivery, a suitable temperature transition must be attained. The drug-labeled ELP should undergo its phase transition between 39 and 42° C., a temperature range sufficiently above normal body temperature to prevent unwanted systemic aggregation, but not hot enough to cause extensive toxicity. Elastin-like polypeptide is ideally suited as a thermally targeted drug carrier because the transition temperature can be easily manipulated by varying the molecular weight or the amino acid composition of the guest residue X in the VPGXG (SEQ ID NO: 2) sequence using simple molecular biology techniques. The transition temperature of Tat-ELP-GFLG-DOX (SEQ ID NO: 3) was assessed by monitoring the turbidity of a solution of the polypeptide while heating in physiological buffer. […] The polypeptide is soluble and the solution is clear at physiological temperature (37° C.).
1.4. Characterization of the Transition Temperature. The temperature induced aggregation of the proteins was characterized by monitoring absorbance at 350 nm while increasing the temperature. For initial analysis of Dox-labeled ELPs, solutions containing 10 μM protein in PBS were heated or cooled at a constant rate of 1° C./min in a temperature-controlled multicell holder in a UV-visible spectrophotometer (Cary 100, Varian instruments). The analysis was repeated with Tat-ELP1-GFLG-Dox (SEQ ID NO: 3) at concentrations ranging from 1 μM to 30 μM in cell culture media in order to determine the concentration dependence of the phase transition under experimental conditions. Absorbance data was converted to percentage of the maximal absorbance for each curve, and the Tt was defined as the temperature at which the OD350 reached 50% of the maximum turbidity. The concentration dependence of the Tt was fit using a logarithmic equation.
3.2. Thermal Properties of the Dox Delivery Vector. […] The Tt of Tat-ELP-GFLG-Dox (SEQ ID NO: 3) was assessed by monitoring the turbidity of a 10 μM solution of the polypeptide while heating in PBS. […]

[2] = test system: MES-SA uterine sarcoma cells; format: cell-based, human; conditions: for Inhibition of cell proliferation: 5 μM, counted after 72 h; for IC50: cells counted after 72 h, ± SEM
Description: MES-SA cells were treated for 1 h at 37 or 42° C. with 5 μM Tat-ELP-GFLG-DOX (SEQ ID NO: 3); ELP-GFLG-DOX (SEQ ID NO: 3), which lacks the Tat cell penetrating peptide; or Tat-ELP-GFLG (SEQ ID NO: 3), which is not labeled with DOX. After the 1 h treatment, cells were rinsed and fresh media was replaced for 72 h. Cells remaining after 72 h were collected by trypsinization and counted using a Coulter counter. […] Similarly, the control polypeptide which lacks the Tat sequence was not cytotoxic, likely because it cannot efficiently enter the cells.
1.8 Cytotoxicity Assay. Cells were plated and treated for 1 h at 37° C. and 42° C. as described above with Tat-ELP1-GFLG-Dox (SEQ ID NO: 3), Tat-ELP2-GFLG-Dox (SEQ ID NO: 3), or control polypeptides lacking the Tat sequence or unlabeled with Dox. Cells were rinsed and harvested 72 h after treatment by trypsinization, collected by centrifugation, and resuspended in isotonic buffer. Cell number was determined using a Coulter counter and expressed as a percentage of untreated cells.
1.10. Data Fitting and Statistical Analysis. The concentration dependence of the Tt was fit with a logarithmic equation using Microsoft Excel. Dose-response curves were fit using exponential or sigmoid equations as applicable using Microcal Origin in order to determine the 50% inhibitory concentration (IC50). […] The significance of the thermal targeting index was assessed by comparing the normothermia group with the hyperthermia group using a paired Student's t-test in Microsoft Excel. p values of less than 0.05 were considered statistically significant. Polypeptide uptake and caspase activation were analyzed for statistical differences using one-way ANOVA analyses with post-hoc Scheffe's tests for pair-wise comparisons of treatment groups. The statistical significance level was p<0.05.
3.5. Cytotoxicity of ELP-delivered Dox. The growth-inhibitory activity of Tat-ELP-GFLG-Dox (SEQ ID NO: 3) was evaluated in the MES-SA uterine sarcoma cell line. MES-SA cells were treated for 1 h at 37° C. or 42° C. with various concentrations of Tat-ELP-GFLG-Dox (SEQ ID NO: 3); ELP-GFLG-Dox (SEQ ID NO: 3), which lacks the Tat cell penetrating peptide, the Tat-ELP-GFLG (SEQ ID NO: 3) polypeptide without Dox; or free Dox. After the 1 h treatment, the cells were rinsed and fresh media was replaced for 72 h. Cells remaining after 72 h were rinsed, collected by trypsinization, and counted using a Coulter counter. […] The toxicity of the unlabeled Tat-ELP-GFLG (SEQ ID NO: 3) protein was negligible when treated below the Tt.

Tat-ELP1-GFLG-Dox
Transition temperature (Tt) ([1]; 10 μM in PBS, heated 1° C./min, midpoint of turbidity): 40 °C | State of the solution at physiological temperature ([1]; 37° C.): soluble | State of the solution at hyperthermia temperature ([1]; 42° C.): aggregated | Cytotoxicity in words [2]: cytotoxic at 37° C., but high concentrations were needed | Enhancement of cytotoxicity (reduction of IC50) by hyperthermia [2]: twenty-fold | Inhibition of cell proliferation ([2]; 1 h at 37° C.): little toxicity | Inhibition of cell proliferation ([2]; 1 h at 42° C.): complete inhibition of cell proliferation | IC50 ([2]; 1 h treatment at 37° C., read-out: IC50 (37° C.)): 21.9 ± 8.2 µM | IC50 ([2]; 1 h treatment at 42° C., read-out: IC50 (42° C.)): 1.1 ± 0.1 µM
